Patent US20230097015A1 (SEOUL NATIONAL UNIVERSITY R AND DB FOUNDATION, published 2023)

Tests used:
[1] = biological target: T1, TycB COM^A-CHS
T1 chain: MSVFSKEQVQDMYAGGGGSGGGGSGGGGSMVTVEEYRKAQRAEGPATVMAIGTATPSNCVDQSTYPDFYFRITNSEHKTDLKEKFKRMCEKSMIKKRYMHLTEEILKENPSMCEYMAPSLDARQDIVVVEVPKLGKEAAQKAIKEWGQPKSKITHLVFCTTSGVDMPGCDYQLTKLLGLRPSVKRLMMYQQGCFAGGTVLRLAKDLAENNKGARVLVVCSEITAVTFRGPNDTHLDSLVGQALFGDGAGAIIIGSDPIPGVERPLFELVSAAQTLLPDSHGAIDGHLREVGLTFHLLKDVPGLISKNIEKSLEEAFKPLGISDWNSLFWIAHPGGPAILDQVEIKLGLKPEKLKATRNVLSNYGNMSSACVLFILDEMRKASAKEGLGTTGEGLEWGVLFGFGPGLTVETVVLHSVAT

[2] = biological target: T2, TycC COM^A-CHS
T2 chain: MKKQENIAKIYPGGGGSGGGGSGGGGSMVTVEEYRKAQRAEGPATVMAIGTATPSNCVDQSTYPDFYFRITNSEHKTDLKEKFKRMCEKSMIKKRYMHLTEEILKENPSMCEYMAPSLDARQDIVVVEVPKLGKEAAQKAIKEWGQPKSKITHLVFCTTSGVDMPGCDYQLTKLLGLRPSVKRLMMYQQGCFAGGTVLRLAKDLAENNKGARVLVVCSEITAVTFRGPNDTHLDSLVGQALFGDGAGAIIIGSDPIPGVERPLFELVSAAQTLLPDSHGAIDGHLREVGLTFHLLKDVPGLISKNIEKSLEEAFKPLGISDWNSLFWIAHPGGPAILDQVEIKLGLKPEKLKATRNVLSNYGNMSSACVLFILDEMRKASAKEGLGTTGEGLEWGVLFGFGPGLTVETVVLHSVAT

[3] = biological target: T3, MlnE COM^A-CHS
T3 chain: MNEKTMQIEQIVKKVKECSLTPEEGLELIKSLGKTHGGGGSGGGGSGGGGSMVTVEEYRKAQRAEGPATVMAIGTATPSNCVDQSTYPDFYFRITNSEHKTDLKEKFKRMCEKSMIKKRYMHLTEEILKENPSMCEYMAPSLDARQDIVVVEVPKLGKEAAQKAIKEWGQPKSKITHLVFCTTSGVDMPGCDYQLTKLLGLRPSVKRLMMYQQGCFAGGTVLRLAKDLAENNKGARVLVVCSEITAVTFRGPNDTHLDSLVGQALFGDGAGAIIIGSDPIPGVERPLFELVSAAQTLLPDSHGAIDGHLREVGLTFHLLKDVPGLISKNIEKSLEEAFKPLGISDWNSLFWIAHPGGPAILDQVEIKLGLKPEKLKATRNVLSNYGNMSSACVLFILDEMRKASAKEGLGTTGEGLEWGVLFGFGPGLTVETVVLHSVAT

[4] = biological target: T4, MlnC COM^A-CHS
T4 chain: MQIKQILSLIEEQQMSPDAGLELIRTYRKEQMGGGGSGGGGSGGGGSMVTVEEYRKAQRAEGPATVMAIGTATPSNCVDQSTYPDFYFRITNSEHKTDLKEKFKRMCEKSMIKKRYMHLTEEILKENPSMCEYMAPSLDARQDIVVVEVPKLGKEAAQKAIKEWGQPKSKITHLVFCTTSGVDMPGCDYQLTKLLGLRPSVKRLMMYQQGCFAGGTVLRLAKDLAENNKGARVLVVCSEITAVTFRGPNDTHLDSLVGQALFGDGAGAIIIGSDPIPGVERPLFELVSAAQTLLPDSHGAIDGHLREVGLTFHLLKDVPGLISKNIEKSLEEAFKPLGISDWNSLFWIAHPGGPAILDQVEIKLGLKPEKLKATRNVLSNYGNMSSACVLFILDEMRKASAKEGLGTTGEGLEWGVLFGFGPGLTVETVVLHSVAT

[5] = biological target: T5, Kj12C COM^A-CHS
T5 chain: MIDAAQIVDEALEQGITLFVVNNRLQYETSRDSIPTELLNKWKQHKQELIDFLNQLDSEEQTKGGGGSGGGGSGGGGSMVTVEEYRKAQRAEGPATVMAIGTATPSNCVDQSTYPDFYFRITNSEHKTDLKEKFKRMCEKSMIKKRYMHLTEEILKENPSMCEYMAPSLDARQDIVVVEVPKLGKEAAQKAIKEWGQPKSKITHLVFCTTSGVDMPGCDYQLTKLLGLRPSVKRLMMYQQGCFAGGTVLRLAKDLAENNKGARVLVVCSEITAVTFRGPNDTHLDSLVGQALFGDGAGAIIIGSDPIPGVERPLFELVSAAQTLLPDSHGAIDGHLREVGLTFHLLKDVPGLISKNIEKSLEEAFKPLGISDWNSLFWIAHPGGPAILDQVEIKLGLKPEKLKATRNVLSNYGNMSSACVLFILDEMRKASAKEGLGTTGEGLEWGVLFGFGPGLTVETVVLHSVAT

B1: 4CL-TycA COM^D (protein)
chain: MAPQEQAVSQVMEKQSNNNNSDVIFRSKLPDIYIPNHLSLHDYIFQNISEFATKPCLINGPTGHVYTYSDVHVISRQIAANFHKLGVNQNDVVMLLLPNCPEFVLSFLAASFRGATATAANPFFTPAEIAKQAKASNTKLIITEARYVDKIKPLQNDDGVVIVCIDDNESVPIPEGCLRFTELTQSTTEASEVIDSVEISPDDVVALPYSSGTTGLPKGVMLTHKGLVTSVAQQVDGENPNLYFHSDDVILCVLPMFHIYALNSIMLCGLRVGAAILIMPKFEINLLLELIQRCKVTVAPMVPPIVLAIAKSSETEKYDLSSIRVVKSGAAPLGKELEDAVNAKFPNAKLGQGYGMTEAGPVLAMSLGFAKEPFPVKSGACGTVVRNAEMKIVDPDTGDSLSRNQPGEICIRGHQIMKGYLNNPAATAETIDKDGWLHTGDIGLIDDDDELFIVDRLKELIKYKGFQVAPAELEALLIGHPDITDVAVVAMKEEAAGEVPVAFVVKSKDSELSEDDVKQFVSKQVVFYKRINKVFFTESIPKAPSGKILRKDLRAKLANGLGGGGSGGGGSERTPSDFSVKGLQMEEMDDIFELLANTLR
production of naringenin (UPLC-qTOF-HR-MS), two-step in vitro reaction [1]: the productivity by the metabolons with the remaining four pairs showed improvement

B2: 4CL-TycB COM^D (protein)
chain: MAPQEQAVSQVMEKQSNNNNSDVIFRSKLPDIYIPNHLSLHDYIFQNISEFATKPCLINGPTGHVYTYSDVHVISRQIAANFHKLGVNQNDVVMLLLPNCPEFVLSFLAASFRGATATAANPFFTPAEIAKQAKASNTKLIITEARYVDKIKPLQNDDGVVIVCIDDNESVPIPEGCLRFTELTQSTTEASEVIDSVEISPDDVVALPYSSGTTGLPKGVMLTHKGLVTSVAQQVDGENPNLYFHSDDVILCVLPMFHIYALNSIMLCGLRVGAAILIMPKFEINLLLELIQRCKVTVAPMVPPIVLAIAKSSETEKYDLSSIRVVKSGAAPLGKELEDAVNAKFPNAKLGQGYGMTEAGPVLAMSLGFAKEPFPVKSGACGTVVRNAEMKIVDPDTGDSLSRNQPGEICIRGHQIMKGYLNNPAATAETIDKDGWLHTGDIGLIDDDDELFIVDRLKELIKYKGFQVAPAELEALLIGHPDITDVAVVAMKEEAAGEVPVAFVVKSKDSELSEDDVKQFVSKQVVFYKRINKVFFTESIPKAPSGKILRKDLRAKLANGLGGGGSGGGGSEYTPSDLGDEELSMEELENILEWI
production of naringenin (UPLC-qTOF-HR-MS), two-step in vitro reaction [2]: the productivity by the metabolons with the remaining four pairs showed improvement

B3: 4CL-MlnD COM^D (protein)
chain: MAPQEQAVSQVMEKQSNNNNSDVIFRSKLPDIYIPNHLSLHDYIFQNISEFATKPCLINGPTGHVYTYSDVHVISRQIAANFHKLGVNQNDVVMLLLPNCPEFVLSFLAASFRGATATAANPFFTPAEIAKQAKASNTKLIITEARYVDKIKPLQNDDGVVIVCIDDNESVPIPEGCLRFTELTQSTTEASEVIDSVEISPDDVVALPYSSGTTGLPKGVMLTHKGLVTSVAQQVDGENPNLYFHSDDVILCVLPMFHIYALNSIMLCGLRVGAAILIMPKFEINLLLELIQRCKVTVAPMVPPIVLAIAKSSETEKYDLSSIRVVKSGAAPLGKELEDAVNAKFPNAKLGQGYGMTEAGPVLAMSLGFAKEPFPVKSGACGTVVRNAEMKIVDPDTGDSLSRNQPGEICIRGHQIMKGYLNNPAATAETIDKDGWLHTGDIGLIDDDDELFIVDRLKELIKYKGFQVAPAELEALLIGHPDITDVAVVAMKEEAAGEVPVAFVVKSKDSELSEDDVKQFVSKQVVFYKRINKVFFTESIPKAPSGKILRKDLRAKLANGLGGGGSGGGGSDTADGEIMSLLEKAQTGEMNTKETSELIEELLFHE
production of naringenin (UPLC-qTOF-HR-MS), two-step in vitro reaction [3]: the productivity by the metabolons with the remaining four pairs showed improvement

B4: 4CL-MlnB COM^D (protein)
chain: MAPQEQAVSQVMEKQSNNNNSDVIFRSKLPDIYIPNHLSLHDYIFQNISEFATKPCLINGPTGHVYTYSDVHVISRQIAANFHKLGVNQNDVVMLLLPNCPEFVLSFLAASFRGATATAANPFFTPAEIAKQAKASNTKLIITEARYVDKIKPLQNDDGVVIVCIDDNESVPIPEGCLRFTELTQSTTEASEVIDSVEISPDDVVALPYSSGTTGLPKGVMLTHKGLVTSVAQQVDGENPNLYFHSDDVILCVLPMFHIYALNSIMLCGLRVGAAILIMPKFEINLLLELIQRCKVTVAPMVPPIVLAIAKSSETEKYDLSSIRVVKSGAAPLGKELEDAVNAKFPNAKLGQGYGMTEAGPVLAMSLGFAKEPFPVKSGACGTVVRNAEMKIVDPDTGDSLSRNQPGEICIRGHQIMKGYLNNPAATAETIDKDGWLHTGDIGLIDDDDELFIVDRLKELIKYKGFQVAPAELEALLIGHPDITDVAVVAMKEEAAGEVPVAFVVKSKDSELSEDDVKQFVSKQVVFYKRINKVFFTESIPKAPSGKILRKDLRAKLANGLGGGGSGGGGSKNEDQEILFLLEQLKNGELSADQVYQLLEGK
production of naringenin (UPLC-qTOF-HR-MS), two-step in vitro reaction [4]: the productivity by the metabolons with the remaining four pairs showed improvement | production of naringenin (UPLC-qTOF-HR-MS), two-step in vitro reaction, against free enzymes [4]: improved by 2 fold or more compared to that by free enzymes (Free) after 20 minutes of the reaction

B5: 4CL-Kj12B COM^D (protein)
chain: MAPQEQAVSQVMEKQSNNNNSDVIFRSKLPDIYIPNHLSLHDYIFQNISEFATKPCLINGPTGHVYTYSDVHVISRQIAANFHKLGVNQNDVVMLLLPNCPEFVLSFLAASFRGATATAANPFFTPAEIAKQAKASNTKLIITEARYVDKIKPLQNDDGVVIVCIDDNESVPIPEGCLRFTELTQSTTEASEVIDSVEISPDDVVALPYSSGTTGLPKGVMLTHKGLVTSVAQQVDGENPNLYFHSDDVILCVLPMFHIYALNSIMLCGLRVGAAILIMPKFEINLLLELIQRCKVTVAPMVPPIVLAIAKSSETEKYDLSSIRVVKSGAAPLGKELEDAVNAKFPNAKLGQGYGMTEAGPVLAMSLGFAKEPFPVKSGACGTVVRNAEMKIVDPDTGDSLSRNQPGEICIRGHQIMKGYLNNPAATAETIDKDGWLHTGDIGLIDDDDELFIVDRLKELIKYKGFQVAPAELEALLIGHPDITDVAVVAMKEEAAGEVPVAFVVKSKDSELSEDDVKQFVSKQVVFYKRINKVFFTESIPKAPSGKILRKDLRAKLANGLGGGGSGGGGSLLKEKRKHFQAEQNSSQEYLRGEI
production of naringenin (UPLC-qTOF-HR-MS), two-step in vitro reaction [5]: productivity by 2-step metabolon_5, Kj12B-C was found similar to that by free enzymes (2-step_control: Free)
